According to patent US20100081612A1 (GENERAL HOSPITAL, published 2010):
Where two headings read alike, the source gives them in different places. Where no end group is shown, it is not given here. [ ]: non-standard residue; d: D form. Gly(1-amidinopiperidin-4-yl) = N=C(N)N1CCC([C@H](N)C(=O)O)CC1; Cha = N[C@@H](CC1CCCCC1)C(=O)O; Nle = CCCC[C@H](N)C(=O)O

T1: wild-type human PTHR (human, UniProt Q03431 27-593)
T1 construct: whole, on cells; also called PTHR-WT; intact PTHR
T1 sequence (looked up): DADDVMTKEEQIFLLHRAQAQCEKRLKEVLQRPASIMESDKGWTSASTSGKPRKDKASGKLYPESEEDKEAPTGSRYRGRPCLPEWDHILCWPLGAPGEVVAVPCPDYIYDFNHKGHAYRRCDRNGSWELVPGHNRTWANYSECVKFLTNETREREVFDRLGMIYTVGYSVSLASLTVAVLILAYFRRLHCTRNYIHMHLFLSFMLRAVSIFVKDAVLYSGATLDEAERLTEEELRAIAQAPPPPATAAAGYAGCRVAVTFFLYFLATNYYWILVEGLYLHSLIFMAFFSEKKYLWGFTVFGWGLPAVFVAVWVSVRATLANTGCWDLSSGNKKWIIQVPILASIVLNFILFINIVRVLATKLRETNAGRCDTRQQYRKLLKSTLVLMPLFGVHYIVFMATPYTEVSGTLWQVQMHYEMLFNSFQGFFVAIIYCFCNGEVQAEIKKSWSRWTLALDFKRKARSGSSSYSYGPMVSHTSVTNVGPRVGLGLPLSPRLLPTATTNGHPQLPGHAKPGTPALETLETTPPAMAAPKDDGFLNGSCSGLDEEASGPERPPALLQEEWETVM

B1: PTH(1-31)NH2 Arg^20→PipGly (peptide)
peptide: SVSEIQLMHNLGKHLNSME[Gly(1-amidinopiperidin-4-yl)]VEWLRKKLQDV-NH2
modifications: N-terminus assumed
SMILES: CC[C@H](C)[C@H](NC(=O)[C@H](CCC(=O)O)NC(=O)[C@H](CO)NC(=O)[C@@H](NC(=O)[C@@H](N)CO)C(C)C)C(=O)N[C@@H](CCC(N)=O)C(=O)N[C@@H](CC(C)C)C(=O)N[C@@H](CCSC)C(=O)N[C@@H](Cc1c[nH]cn1)C(=O)N[C@@H](CC(N)=O)C(=O)N[C@@H](CC(C)C)C(=O)NCC(=O)N[C@@H](CCCCN)C(=O)N[C@@H](Cc1c[nH]cn1)C(=O)N[C@@H](CC(C)C)C(=O)N[C@@H](CC(N)=O)C(=O)N[C@@H](CO)C(=O)N[C@@H](CCSC)C(=O)N[C@@H](CCC(=O)O)C(=O)N[C@H](C(=O)N[C@H](C(=O)N[C@@H](CCC(=O)O)C(=O)N[C@@H](Cc1c[nH]c2ccccc12)C(=O)N[C@@H](CC(C)C)C(=O)N[C@@H](CCCNC(=N)N)C(=O)N[C@@H](CCCCN)C(=O)N[C@@H](CCCCN)C(=O)N[C@@H](CC(C)C)C(=O)N[C@@H](CCC(N)=O)C(=O)N[C@@H](CC(=O)O)C(=O)N[C@H](C(N)=O)C(C)C)C(C)C)C1CCN(C(=N)N)CC1
B2: PTH(1-31)NH2 Arg^20→Gln (peptide)
peptide: SVSEIQLMHNLGKHLNSMEQVEWLRKKLQDV-NH2
B3: PTH(1-31)NH2 Arg^20→Lys (peptide)
peptide: SVSEIQLMHNLGKHLNSMEKVEWLRKKLQDV-NH2
B4: PTH(1-31)NH2 Glu^19,22→Arg,Ala (peptide)
peptide: SVSEIQLMHNLGKHLNSMRRVAWLRKKLQDV-NH2
B5: [Ala^1,Arg^19]hPTH(1-31)NH2 Val^21→Glu (peptide)
peptide: AVSEIQLMHNLGKHLNSMRREEWLRKKLQDV-NH2
B6: PTH(1-31)NH2 Glu^19→Arg (peptide)
peptide: SVSEIQLMHNLGKHLNSMRRVEWLRKKLQDV-NH2
B7: PTH(1-31)NH2 Glu^19,22→Ala,Ala (peptide)
peptide: SVSEIQLMHNLGKHLNSMARVAWLRKKLQDV-NH2
B8: [Ala^1,Arg^19]hPTH(1-31)NH2 Lys^26→Glu (peptide)
peptide: AVSEIQLMHNLGKHLNSMRRVEWLREKLQDV-NH2
B9: [Ala^1,Arg^19]hPTH(1-31)NH2 Lys^27→Glu (peptide)
peptide: AVSEIQLMHNLGKHLNSMRRVEWLRKELQDV-NH2
B10: [Ala^1,Arg^19]hPTH(1-31)NH2 Arg^25→Glu (peptide)
peptide: AVSEIQLMHNLGKHLNSMRRVEWLEKKLQDV-NH2
B11: PTH(1-31)NH2 Arg^20→Glu (peptide)
peptide: SVSEIQLMHNLGKHLNSMEEVEWLRKKLQDV-NH2
B12: [Ala^1,Arg^19]hPTH(1-31)NH2 Ser^17→Cha (peptide)
peptide: AVSEIQLMHNLGKHLN[Cha]MRRVEWLRKKLQDV-NH2
modifications: N-terminus assumed
SMILES: CC[C@H](C)[C@H](NC(=O)[C@H](CCC(=O)O)NC(=O)[C@H](CO)NC(=O)[C@@H](NC(=O)[C@H](C)N)C(C)C)C(=O)N[C@@H](CCC(N)=O)C(=O)N[C@@H](CC(C)C)C(=O)N[C@@H](CCSC)C(=O)N[C@@H](Cc1c[nH]cn1)C(=O)N[C@@H](CC(N)=O)C(=O)N[C@@H](CC(C)C)C(=O)NCC(=O)N[C@@H](CCCCN)C(=O)N[C@@H](Cc1c[nH]cn1)C(=O)N[C@@H](CC(C)C)C(=O)N[C@@H](CC(N)=O)C(=O)N[C@@H](CC1CCCCC1)C(=O)N[C@@H](CCSC)C(=O)N[C@@H](CCCNC(=N)N)C(=O)N[C@@H](CCCNC(=N)N)C(=O)N[C@H](C(=O)N[C@@H](CCC(=O)O)C(=O)N[C@@H](Cc1c[nH]c2ccccc12)C(=O)N[C@@H](CC(C)C)C(=O)N[C@@H](CCCNC(=N)N)C(=O)N[C@@H](CCCCN)C(=O)N[C@@H](CCCCN)C(=O)N[C@@H](CC(C)C)C(=O)N[C@@H](CCC(N)=O)C(=O)N[C@@H](CC(=O)O)C(=O)N[C@H](C(N)=O)C(C)C)C(C)C
B13: PTH(1-31)NH2 Arg^20→Cit (peptide)
peptide: SVSEIQLMHNLGKHLNSMEXVEWLRKKLQDV
modifications: citrulline (Cit) at 20; C-terminal amide
B14: PTH(1-31)NH2 Arg^20→Nle (peptide)
peptide: SVSEIQLMHNLGKHLNSME[Nle]VEWLRKKLQDV-NH2
modifications: N-terminus assumed
SMILES: CCCC[C@H](NC(=O)[C@H](CCC(=O)O)NC(=O)[C@H](CCSC)NC(=O)[C@H](CO)NC(=O)[C@H](CC(N)=O)NC(=O)[C@H](CC(C)C)NC(=O)[C@H](Cc1c[nH]cn1)NC(=O)[C@H](CCCCN)NC(=O)CNC(=O)[C@H](CC(C)C)NC(=O)[C@H](CC(N)=O)NC(=O)[C@H](Cc1c[nH]cn1)NC(=O)[C@H](CCSC)NC(=O)[C@H](CC(C)C)NC(=O)[C@H](CCC(N)=O)NC(=O)[C@@H](NC(=O)[C@H](CCC(=O)O)NC(=O)[C@H](CO)NC(=O)[C@@H](NC(=O)[C@@H](N)CO)C(C)C)[C@@H](C)CC)C(=O)N[C@H](C(=O)N[C@@H](CCC(=O)O)C(=O)N[C@@H](Cc1c[nH]c2ccccc12)C(=O)N[C@@H](CC(C)C)C(=O)N[C@@H](CCCNC(=N)N)C(=O)N[C@@H](CCCCN)C(=O)N[C@@H](CCCCN)C(=O)N[C@@H](CC(C)C)C(=O)N[C@@H](CCC(N)=O)C(=O)N[C@@H](CC(=O)O)C(=O)N[C@H](C(N)=O)C(C)C)C(C)C

What was measured:
wild-type human PTHR [1] = target: T1, wild-type human PTHR; assay: competition binding, HKRK-B7 cells, 125I-PTH(1-34) tracer
wild-type human PTHR [2] = target: T1, wild-type human PTHR; assay: as above; remark: listed apart in the source
Method: (§1) Receptor binding—Binding to the wild-type human PTHR in intact HKRK-B7 cells and ROS 17/2.8 cells was assessed using ¹²⁵I-PTH(1-34) as a tracer radioligand, as described (Shimizu, M., (2001) Endocrinology 142:3068-3074). In brief, the cells in 24-well plates (about 500,000 cells per well) were incubated in binding buffer containing radioligand (about 100,000 cpm per well) with or without unlabeled peptide ligand (3×10⁻⁹ to 1×10⁻⁵ M) for four hours at 15° C. The binding mixture was then removed by aspiration, the cells were rinsed three times with binding buffer, lysed in 1 M NaOH, and the entire lysate was counted for gamma-irradiation in a gamma counter. Binding to PTHR-delNt in COS-7 cell membranes was assessed in 96-well, vacuum filtration plates (Multiscreen-Durapore HV, […], Millipore Corp., Millford, Mass.) using ¹²⁵I-[Aib^{1,3},M]PTH(1-15)NH₂ as a tracer radioligand, as described (Dean, T., (2006) Mol Endocrinol 20:931-942). In brief, cell membranes (20 μg/well) were incubated in membrane binding buffer containing radioligand (30,000 cpm/well) with or without unlabeled peptide ligand (3×10⁻⁹ to 1×10⁻⁵ M) for 90 minutes at 21° C. The plates were then subject to rapid vacuum filtration, the filters were washed once with buffer, detached from the plate and counted for gamma-irradiation in a gamma counter. Non-specific binding was defined as the binding observed in the presence of 1×10⁻⁶ M PTH(1-31)NH₂ for HKRK-B7 and ROS 17/2.8 cells, and 1×10⁻⁶ M [Aib^{1,3},M]PTH(1-15)NH₂ for PTHR-delNt. Specifically bound radioactivity was calculated as a percentage of the radioactivity specifically bound in the absence of competing ligand.
Alanine-Scan of the PTH(17-31) domain—Each residue in the (17-31) region of PTH(1-31)NH₂ was individually replaced with alanine and the effects of the substitutions on binding to the intact human PTHR stably expressed in HKRK-B7 cells was assessed. Competition binding studies were performed using whole cells and ¹²⁵I-PTH(1-34) (¹²⁵I-[Nle^{8,21},Tyr³⁴]ratPTH(1-34)NH₂) as a tracer radioligand.

PTHR-delNt (human) = PTHR-delNt (human) (UniProt Q03431); assay: competition binding, COS-7 membranes, 125I-[Aib1,3,M]PTH(1-15) tracer
wild-type human PTHR [3] = target: T1, wild-type human PTHR; assay: competition binding, HKRK-B7 cells, 125I-PTH(1-34) tracer; remark: listed apart in the source
Method: as §1
Cyclohexylalanine and glutamate substitutions were introduced into [Ala¹,Arg¹⁹]hPTH(1-31)NH₂. The helical residue values were calculated from [θ]₂₂₂, the mean-residue elipticities observed in the CD spectra at 222 nm. Competition binding studies were performed in intact HKRK-B7 cells stably transfected with the hPTHR using ¹²⁵I-[Nle^{8,21},Tyr³⁴]rPTH(1-34)NH ₂ tracer radioligand, and in membranes prepared from COS-7 cells transiently transfected with hPTHR-delNt and a negative-dominant Gαs using ¹²⁵I-[Aib^{1,3},Nle⁸,Gln¹⁰,Har¹¹,Ala¹²,Trp¹⁴,Tyr¹⁵]rPTH(1-15)NH₂ tracer radioligand. Binding values (nM) are means (+/−s.e.m.) of data from the number of experiments indicated (n).

Binder | IC50 (wild-type human PTHR [2]) | IC50 (PTHR-delNt (human)) | fold difference of IC50 from PTH(1-31)NH2 (PTHR-delNt (human)) | IC50 (wild-type human PTHR [3]) | other results
B1 | 14100 nM | 6600 nM | < 4 fold | – | fold reduction in binding affinity vs PTH(1-31)NH2 (wild-type human PTHR [1]): ~200 fold
B2 | > 10000 nM | 10300 nM | < 4 fold | – | –
B3 | > 10000 nM | 7100 nM | < 4 fold | – | –
B4 | 54 nM | 360 nM | – | – | –
B5 | – | 1620 nM | – | 447 nM | fold reduction in binding affinity vs [Ala^1,Arg^19]PTH(1-31)NH2 (wild-type human PTHR [1]): 12 fold; fold reduction in binding affinity vs [Ala^1,Arg^19]PTH(1-31)NH2 (PTHR-delNt (human)): 4 fold
B6 | 42 nM | 1230 nM | – | – | fold enhancement in binding affinity vs PTH(1-31)NH2 (wild-type human PTHR [1]): ≤ 2 fold
B7 | 49 nM | 619 nM | – | – | –
B8 | – | 832 nM | – | 60 nM | –
B9 | – | 1270 nM | – | 156 nM | –
B10 | – | 1630 nM | – | 189 nM | fold reduction in binding affinity vs [Ala^1,Arg^19]PTH(1-31)NH2 (PTHR-delNt (human)): 4 fold
B11 | > 10000 nM | 14700 nM | – | – | fold reduction in binding affinity vs PTH(1-31)NH2 (PTHR-delNt (human)): 4 fold
B12 | – | 179 nM | – | 112 nM | fold change in binding affinity vs [Ala^1,Arg^19]PTH(1-31)NH2 (wild-type human PTHR [1]): ≤ 6 fold; fold change in binding affinity vs [Ala^1,Arg^19]PTH(1-31)NH2 (PTHR-delNt (human)): < 3 fold
B13 | 11900 nM | 10600 nM | < 4 fold | – | fold reduction in binding affinity vs PTH(1-31)NH2 (wild-type human PTHR [1]): ~200 fold
B14 | 15400 nM | 10700 nM | < 4 fold | – | fold reduction in binding affinity vs PTH(1-31)NH2 (wild-type human PTHR [1]): ~200 fold
